Laboratory results reported in patent US20240082356A1, “TREATMENT OF COPD BY STIMULATION OF STEM CELL MOBILIZATION” (Therapeutic Solutions International, Inc., priority 2022, published 2024).

System: neutrophil infiltration in COPD like inflammation
Test: Neutrophil infiltration in elastase-induced COPD model
Format: in vivo
Details: female BALB/c mice injected with elastase (5 micrograms per mouse); G-CSF 10 micrograms per mouse every second day for one week and pterostilbene 40 mg/kg intraperitoneally; assessed on days 0, 7 and 14
Protocol: Female BALB/c mice, 10 per group, where injected with elastase (5 micrograms per mouse) to induce COPD like inflammation. Mice were given G-CSF (10 micrograms per mouse) every second day for one week and pterostilbene (40 mg/kg) intraperitoneally. Mice were sacrificed on days 0, 7, and 14 and assessed for neutrophil infiltration.

B1: G-CSF: stem cell mobilizer; colony stimulating factor (protein, UniProt P09919 31-207, looked up)
Granulocyte …: TPLGPASSLPQSFLLKCLEQVRKIQGDGAALQEKLVSECATYKLCHPEELVLLGHSLGIPWAPLSSCPSQALQLAGCLSQLHSGLFLYQGLLQALEGISPELGPTLDTLQLDVADFATTIWQQMEELGMAPALQPTQGAMPAFASAFQRRAGGVLVASHLQSFLEVSYRVLRHLAQP
neutrophil infiltration in COPD Model: reduction of neutrophil infiltration
